This assay deals with T1, TolC (E. coli, UniProt P02930 23-493).
T1 sequence: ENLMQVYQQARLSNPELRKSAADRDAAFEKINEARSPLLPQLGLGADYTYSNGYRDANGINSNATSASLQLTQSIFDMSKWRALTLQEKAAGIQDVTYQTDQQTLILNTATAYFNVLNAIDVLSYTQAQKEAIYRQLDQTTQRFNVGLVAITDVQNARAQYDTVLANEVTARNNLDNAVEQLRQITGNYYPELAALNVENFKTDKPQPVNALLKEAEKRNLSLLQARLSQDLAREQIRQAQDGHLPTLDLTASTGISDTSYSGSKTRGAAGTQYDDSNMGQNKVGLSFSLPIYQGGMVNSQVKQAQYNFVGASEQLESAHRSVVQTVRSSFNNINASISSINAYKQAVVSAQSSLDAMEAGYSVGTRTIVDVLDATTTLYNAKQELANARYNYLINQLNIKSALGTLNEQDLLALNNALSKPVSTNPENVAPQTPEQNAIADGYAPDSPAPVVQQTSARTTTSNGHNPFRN
The assay can be described thus: SEC. (In general: Size exclusion chromatography separates by hydrodynamic size, large species first.)

B1: residues 1-190 of colicin E1 (colE1-T) (domain or fragment)
chain: METAVAYYKDGVPYDDKGQVIITLLNGTPDGSGSGGGGGKGGSKSESSAAIHATAKWSTAQLKKTQAEQAARAKAAAEAQAKAKANRDALTQRLKDIVNEALRHNASRTPSATELAHANNAAMQAEDERLRLAKAEEKARKEAEAAEKAFQEAEQRRKEIEREKAETERQLKLAEAEEKRLAALSEEAKA
On to B1, for which the binding result was “binds”.

The values above are taken from paper doi:10.1101/2022.04.28.489915 (bioRxiv, 2022).
